Source: PMC4813479, “β-Subunit Binding Is Sufficient for Ligands to Open the Integrin αIIbβ3 Headpiece” (The Journal of Biological Chemistry, 2015)
Read-outs that look alike come from different tables or passages of the source. Non-standard residues stand in square brackets, D forms with d. No end group written: not given here. *: point of attachment. FITC = O=C1OC2(c3ccc(O)cc3Oc3cc(O)ccc32)c2ccc(NC(=S)*)cc21; Ahx = NCCCCCC(=O)O

Assays:
[1] = molecular target: six-domain αIIbβ3 headpiece fragment (chymotrypsin-treated, re-purified)
[2] = molecular target: full-length human αIIbβ3 on CHO K1 cells (human) (UniProt P08514)
[3] = molecular target: recombinant αIIbβ3 headpiece; assay: fluorescence polarisation; competition: unlabeled peptide against 3 nM FITC-dodecapeptide on 300 nM αIIbβ3 headpiece; I50 converted to KD; 20 mM HEPES, pH 7.5, 150 mM NaCl, 2 mM MnCl2, 0.1 mM CaCl2
[4] = molecular target: recombinant αIIbβ3 headpiece; assay: fluorescence polarisation; saturation: FITC-dodecapeptide probe at 3 nM, increasing concentration of αIIbβ3 headpiece; one-site specific binding fit; background with 10 μM tirofiban subtracted; 20 mM HEPES, pH 7.5, 150 mM NaCl, 2 mM MnCl2, 0.1 mM CaCl2
[5] = molecular target: recombinant αIIbβ3 headpiece; assay: fluorescence polarisation; competition: unlabeled peptide against 3 nM FITC-dodecapeptide on 300 nM αIIbβ3 headpiece; I50 converted to KD; 20 mM HEPES, pH 7.5, 150 mM NaCl, 2 mM MnCl2, 0.1 mM CaCl2; remark: listed apart in the source

B1: RGDF peptide (peptide)
peptide: RGDF
In the case of B1, the Stokes radius of the αIIbβ3 headpiece by size-exclusion chromatography (Superdex 200) with 1 mM peptide (4.78 nm in buffer) [1] is reported as 5.23 nm.

B2: fibrinogen γC dodecapeptide (peptide)
peptide: HHLGGAKQAGDV
B2 gave an EC50 of LIBS1 epitope exposure on CHO cells expressing αIIbβ3 (flow cytometry, 1 mM Mg2+ and 1 mM Ca2+) [2] of 0.58 mM and a Kd [3] of 1.27 µM.

B3: FITC-aminohexanoyl-… (peptide)
peptide: {FITC-Ahx}-HHLGGAKQAGDV
Work on B3 yielded a Kd [4] of 640 nM.

B4: AGD(v) (D-valine in place of L-valine) (peptide)
peptide: AGD[dV]
B4 showed a fold decrease in binding affinity against AGDV [3] of 24 fold.

B5: AGDV-NH2 (amidated AGDV) (peptide)
peptide: AGDV-NH2
Work on B5 yielded a fold reduction in affinity against AGDV [3] of 5.6 fold and a fold reduction in affinity against AGDV [5] of 7 fold.

B6: QAGDV pentapeptide (peptide)
peptide: QAGDV
Binder B6 has a Kd [3] of 7.85 µM.

B7: AGDV tetrapeptide (peptide)
peptide: AGDV
B7 was tested, and the Kd [3] was 9.03 µM.

B8: N-acetylated AGDV (peptide)
peptide: Ac-AGDV
B8 was tested, and the Kd [3] was 1 µM.

B9: AGDV-OCH3 (O-methylated AGDV) (peptide)
peptide: AGDV-OMe
B9 gave a fold reduction in affinity against AGDV [3] of 7.5 fold.
